Data reported in doi:10.1101/2022.11.20.517165.

Key:
[1] = biological target: Toc90 (Chlamydomonas reinhardtii); test: cryo-EM structure
[2] = biological target: Toc75 (Chlamydomonas reinhardtii); test: cryo-EM structure

In the case of Toc75 (natural protein), the stoichiometry N [1] is reported as 1.

B1: Toc34 (natural protein)
chain: MAQPPRPAEEYDDDVQEDEDELKEGELDDDESHEAASEGGEAAAGDEEAEDDEQDEEDGDEDSQPWAGLNRLPERDDMLDILNELRAEGRKQLTVLLLGKSSVGKSSLINSLLGEAVVRVQAFKLQADTDITTTVVRQVAVGNSEVDGFRLKLIDTCGLEDPEAGDTVNLGALSKIAEDVRGVGIDVVLYCDRLDLYRVDPLDKAIIDAISSTFGRGIWRRTVVALTHANLVQTPPGTDYDSFVNGRVRLIRGAVRGPLFFRPSLPVALVENSETCPVSSESGFRVLPDGEPWLVALVSQLVDMAAARRRPYKYHPRLSSKPSHRFRWLLPVAIAAEVLFYRRFLHPRLDDNQRRVEREEERVWALRGQQRRALGLHRPHRPDKDAAWRLEQMYDDD
B1 gave a stoichiometry N [2] of 1.
